Here are results for 2 molecules from publication PMC9514091 (2022).

First the molecules themselves.
B1: host PD-L1-Fc fusion protein (Fc fusion)
chain: FTITVPKDLYVVEYGSNVTLECRFPVDKQLNLLALVVYWEMEDKKIIQFVNGEEDLNVQHSSYNQRALLLKNQLPLGKAALQITDVKLQDAGIYCCLISYGGADYKRITLKVNASYRKINQTISVDPVTSEHELMCQAEGYPEAEVIWTSSDHRVLSGKTTITSSKREEKLFNVTSTLRINTTANEIFYCIFRRLGHEENSTAELV
B2: host PD-1-Fc fusion protein (Fc fusion)
chain: LDAPSRPWSPLTFSPARLTVPEGANATFTCSFSSKPEHFVLNWYRMSPSNQTDKLAAFPEDRSQPGRDRRFHVTPLPGGRHFHMSIMAAQRNDSGVYFCGAIYLPPKTQINESRPAELT

Experiment [1] concerns the target B2. Description: SPR.
A further experiment has as its target De2-Fc fusion protein (Tursiops truncatus gammaherpesvirus 1). Nature of the experiment: SPR. (In general: SPR reads the build-up and loss of mass on a sensor chip optically.)

As for B1, the koff (as a rule, the first-order rate constant of dissociation) in experiment [1] was found to be 0.000488 s⁻¹. In turn, B2 displayed an off-rate (koff) with De2-Fc fusion protein of 0.000696 s⁻¹.
